Assay results published in US20040014151A1 (published 2004).

Biological target: the molecule itself
Test: SEC-HPLC of IMAC-purified protein from cpcE or cpcF mutant
Protocol: Size Exclusion Chromatography-High Performance Liquid Chromatography—Although IMAC-purified and dialyzed samples (see above) could be used with no obvious effect on the results, proteins to be analyzed by SEC-HPLC were generally dialyzed again in 50 mM Na—PO₄ pH 7.0, 50 mM NaCl, 0.5 mM DTT. […] A mobile phase of 50 mM Na—PO₄ pH 7.0 was flowed at 0.8 ml min⁻¹ through Bio-Sil 250 (Bio-Rad Laboratories, Hercules, Calif.) guard column (80×7.8 mm) and column (300×7.8 mm) maintained at 25° C. For analytical separations, 50 to 200 μg of phycocyanin was loaded [based on absorbance at the peak near 621 nm and using a molar extinction coefficient of 290,000 M⁻¹ cm⁻¹ per monomer (29)]. Molecular size calibration utilized bovine gamma globulin, 158 kDa; chicken ovalbumin, 44 kDa; horse myoglobin, 17 kDa; vitamin B12, 1.35 kDa (Bio-Rad gel filtration standards). The void volume was determined with blue dextran, 2000 kDa (Pharmacia Biotech, Piscataway, N.J.). Preparative separations were performed with loads of 0.5 to 1 mg phycocyanin.

B1: His-tagged C-phycocyanin β subunit, holo-HTβ (other, Anabaena sp. PCC7120, UniProt P07120 1-173, looked up)
chain: MTLDVFTKVVSQADSRGEFLSNEQLDALANVVKEGNKRLDVVNRITSNASAIVTNAARALFEEQPQLIAPGGNAYTNRRMAACLRDMEIILRYVTYAILAGDASVLDDRCLNGLRETYQALGTPGSSVAVGVQKMKDAAVGIANDPNGITKGDCSQLISEVASYFDRAAAAVG
modifications: two phycocyanobilins (PCB); methylated Asn72
notes: Encoded by pBS262, expressed in Anabaena sp; also called An262; not shown: 24-residue N-terminal extension with 6xHis tag and TEV protease site
- binding result: binds
